# Measurements from patent US20170173105A1, “AUTOASSEMBLING PEPTIDES FOR THE TREATMENT OF PULMONARY LEAKAGE” (3-D MATRIX, LTD., priority 2014, published 2017).
# Experiments:
# Type in all cases: physicochemical
# [1] = Appearance of 1.5% peptide solutions with various salts at room temperature; conditions: for Appearance: IEIK13 solution, room temperature
# Description: The effect of salt ionic strength level on the properties of peptide solutions was evaluated to identify optimized salt ionic strength levels for the peptides as described herein. Increasing the salt ionic strength level of PuraMatrix® and other peptides may generally improve its function and mechanical strength for various clinical applications. To adjust the salt ionic strength of the peptide solutions by way of example, various salt buffer solutions including NaCl, KCl, MgCl2, CaCl2 and DPBS (10×) were added to 2 mL of 1.5% peptide solutions.
# [2] = pH and appearance of 2.5% peptide solutions after adding 0.1 N NaOH
# Description: To adjust the pH level of the peptide solutions by way of example, 0.1 N NaOH was added to 2 mL of 2.5% peptide solutions and their pH and appearance were measured.
# [3] = Rheological properties of pH adjusted peptide solutions and hydrogels (stress/frequency sweep)
# Description: Based on the visual observation of the effect of pH level on the properties of the peptide solutions, the effect on the rheological properties of the peptide solutions after adjusting their pH level to 3.4 (PuraMatrix® and KLD12) or 3.7 (IEIK13) was evaluated. If the pH levels of peptide solutions are higher than 3.5 (PuraMatrix® and KLD12) or 3.7 (IEIK13), the peptide solution began phase separation becoming cloudy. The rheological properties of PuraMatrix®, KLD12 and IEIK13 solutions were higher at pH 3.4. The results are shown in FIG. 2 for KLD12 1%, FIG. 3 for IEIK13 1%, and FIGS. 4-5 for PuraMatrix® 1% and 2.5%, respectively. Stress sweep tests were performed at 10 rad/s. Frequency sweep tests were performed at 1 Pa.
# Based on the results of the effect on the rheological properties of the peptide solutions after adjusting their pH level to 3.4 (PuraMatrix® and KLD12) or 3.7 (IEIK13), the effect on the rheological properties of the peptide solutions at various pH levels was evaluated. […] The rheological properties of peptides were evaluated at various concentrations using a rheometer (DHR-1, TA Instruments) with 20 mm plates. The results are shown in FIG. 6A for PuraMatrix® 2.5% solution and FIG. 6B for IEIK13 1.5% solution, respectively. Frequency sweep tests were performed from 1 rad/sec to 10 rad/sec at 1 Pa and the storage modulus at 1 rad/sec was selected for data.
# Based on the results of the effect on the rheological properties of the peptide solutions after adjusting their pH level, the effect on the rheological properties of the peptide hydrogels at various pH after DMEM treatment was evaluated and compared to the effect on the rheological properties of the peptide solutions at various pH before DMEM treatment. […] The results are shown in FIGS. 7A-7B for PuraMatrix® and FIGS. 8A-8B for IEIK (SEQ ID NO: 5), respectively. Frequency sweep tests were performed from 1 rad/sec to 10 rad/sec at 1 Pa and the storage modulus at 1 rad/sec was selected for data.
# [4] = Gelation of peptide solutions on saline buffer treatment (time sweep); conditions: saline buffer (0.15 M of NaCl); IEIK13 1.5%, KLD12 1.5%, PuraMatrix 2.5%
# Description: The effect of salt ionic strength level surrounding peptide solution on the properties of peptide solutions was evaluated to identify the possibility of peptide gelation when the peptide solution is placed into the environment where salt ionic strength level is high. […] Without pH effect, the effect of saline treatment on gelation of peptide solutions were evaluated. […] This is because IEIK13 is much more sensitive to salt ionic strength levels. Fast gelation of IEIK13 at the salt ionic strength level similar to body fluid isotonic salt level may generally improve its function and gelation speed for various clinical applications. The results are shown in FIG. 19 for IEIK13, KLD12 and PuraMatrix® solutions. Time sweep tests were performed at 1 rad/sec and at 1 Pa with 20 mm plates and 500 μm gap distance. […]
# [5] = 0.1 N NaOH 0 μL/mL added in 2.5% solution, conc. 2.5%
# [6] = 0.1 N NaOH 50 μL/mL added in 2.5% solution, conc. 2.38%
# [7] = 0.1 N NaOH 100 μL/mL added in 2.5% solution, conc. 2.27%
# [8] = 0.1 N NaOH 350 μL/mL added in 2.5% solution, conc. 1.85%
# [9] = pH increase up to approximately 3.5 or less with 0.1 N NaOH, 2.5% solutions
substance,measurement,setting,value
Ile-Glu-Ile-Lys-Ile-Glu-Ile-Lys-Ile-Glu-Ile-Lys-Ile [IEIK13],Appearance,"[1]; CaCl2 0 M, ionic strength 0 M, conc. 1.5%","Clear, thick gel"
same,Appearance,"[1]; CaCl2 0.005 M, ionic strength 0.015 M, conc. 1.46%","Clear, thick, stiffer gel"
same,Appearance,"[1]; CaCl2 0.0067 M, ionic strength 0.02 M, conc. 1.45%","Clear, thick, stiffer gel"
same,Appearance,"[1]; CaCl2 0.0083 M, ionic strength 0.025 M, conc. 1.44%","Clear, thick, stiffer gel"
same,Appearance,"[1]; CaCl2 0.01 M, ionic strength 0.03 M, conc. 1.43%","Clear, thick, stiffer gel"
same,Appearance,"[1]; CaCl2 0.0117 M, ionic strength 0.035 M, conc. 1.41%","Clear, thick, stiffer gel"
same,Appearance,"[1]; CaCl2 0.0133 M, ionic strength 0.04 M, conc. 1.40%","Slightly cloudy, thick, stiffer gel"
same,Appearance,"[1]; CaCl2 0.015 M, ionic strength 0.045 M, conc. 1.39%","Slightly cloudy, thick, stiffer gel"
same,Appearance,"[1]; CaCl2 0.0167 M, ionic strength 0.05 M, conc. 1.37%","Slightly cloudy, brittle gel"
same,Appearance,"[1]; CaCl2 0.0183 M, ionic strength 0.055 M, conc. 1.36%","Cloudy, phase-separated"
same,Appearance,"[1]; KCl 0 M, ionic strength 0 M, conc. 1.5%","Clear, thick gel"
same,Appearance,"[1]; KCl 0.005 M, ionic strength 0.005 M, conc. 1.46%","Clear, thick, stiffer gel"
same,Appearance,"[1]; KCl 0.01 M, ionic strength 0.01 M, conc. 1.43%","Clear, thick, stiffer gel"
same,Appearance,"[1]; KCl 0.015 M, ionic strength 0.015 M, conc. 1.39%","Clear, thick, stiffer gel"
same,Appearance,"[1]; KCl 0.02 M, ionic strength 0.02 M, conc. 1.35%","Clear, thick, stiffer gel"
same,Appearance,"[1]; KCl 0.025 M, ionic strength 0.025 M, conc. 1.31%","Clear, thick, stiffer gel"
same,Appearance,"[1]; KCl 0.03 M, ionic strength 0.03 M, conc. 1.27%","Clear, thick, stiffer gel"
same,Appearance,"[1]; KCl 0.035 M, ionic strength 0.035 M, conc. 1.24%","Slightly cloudy, brittle gel"
same,Appearance,"[1]; KCl 0.04 M, ionic strength 0.04 M, conc. 1.2%","Slightly cloudy, brittle"
same,Appearance,"[1]; KCl 0.045 M, ionic strength 0.045 M, conc. 1.16%","Cloudy, phase-separated"
same,Appearance,"[1]; MgCl2 0 M, ionic strength 0 M, conc. 1.5%","Clear, thick gel"
same,Appearance,"[1]; MgCl2 0.005 M, ionic strength 0.015 M, conc. 1.46%","Clear, thick, stiffer gel"
same,Appearance,"[1]; MgCl2 0.0067 M, ionic strength 0.02 M, conc. 1.45%","Clear, thick, stiffer gel"
same,Appearance,"[1]; MgCl2 0.0083 M, ionic strength 0.025 M, conc. 1.44%","Clear, thick, stiffer gel"
same,Appearance,"[1]; MgCl2 0.01 M, ionic strength 0.03 M, conc. 1.43%","Clear, thick, stiffer gel"
same,Appearance,"[1]; MgCl2 0.0117 M, ionic strength 0.035 M, conc. 1.41%","Clear, thick, stiffer gel"
same,Appearance,"[1]; MgCl2 0.0133 M, ionic strength 0.04 M, conc. 1.40%","Slightly cloudy, thick, stiffer gel"
same,Appearance,"[1]; MgCl2 0.015 M, ionic strength 0.045 M, conc. 1.39%","Slightly cloudy, stiffer gel"
same,Appearance,"[1]; MgCl2 0.0167 M, ionic strength 0.05 M, conc. 1.37%","Slightly cloudy, brittle gel"
same,Appearance,"[1]; MgCl2 0.0183 M, ionic strength 0.055 M, conc. 1.36%","Cloudy, phase-separated"
same,Appearance,"[1]; NaCl 0 M, ionic strength 0 M, conc. 1.5%","Clear, thick gel"
same,Appearance,"[1]; NaCl 0.005 M, ionic strength 0.005 M, conc. 1.46%","Clear, thick, stiffer gel"
same,Appearance,"[1]; NaCl 0.01 M, ionic strength 0.01 M, conc. 1.43%","Clear, thick, stiffer gel"
same,Appearance,"[1]; NaCl 0.015 M, ionic strength 0.015 M, conc. 1.39%","Clear, thick, stiffer gel"
same,Appearance,"[1]; NaCl 0.02 M, ionic strength 0.02 M, conc. 1.35%","Clear, thick, stiffer gel"
same,Appearance,"[1]; NaCl 0.025 M, ionic strength 0.025 M, conc. 1.31%","Clear, thick, stiffer gel"
same,Appearance,"[1]; NaCl 0.03 M, ionic strength 0.03 M, conc. 1.27%","Slightly cloudy, thick, stiffer gel"
same,Appearance,"[1]; NaCl 0.035 M, ionic strength 0.035 M, conc. 1.24%","Slightly cloudy, brittle gel"
same,Appearance,"[1]; NaCl 0.04 M, ionic strength 0.04 M, conc. 1.2%","Cloudy, phase-separated"
same,apparent stiffness on salt ionic strength increase,[1]; up to the ionic strength at which solutions stay clear,increased
same,Appearance,[2]; [5],"Clear, thick gel"
same,Peptide solution pH,[2]; [5],1.8
same,Appearance,[2]; [6],"Clear, thick gel"
same,Peptide solution pH,[2]; [6],2.1
same,Appearance,[2]; [7],"Clear, thick gel"
same,Peptide solution pH,[2]; [7],2.2
same,Peptide solution pH,"[2]; 0.1 N NaOH 150 μL/mL added in 2.5% solution, conc. 2.17%",2.7
same,Peptide solution pH,"[2]; 0.1 N NaOH 200 μL/mL added in 2.5% solution, conc. 2.08%",3.0
same,Peptide solution pH,"[2]; 0.1 N NaOH 250 μL/mL added in 2.5% solution, conc. 2.0%",3.3
same,Peptide solution pH,"[2]; 0.1 N NaOH 275 μL/mL added in 2.5% solution, conc. 1.96%",3.7
same,Peptide solution pH,"[2]; 0.1 N NaOH 300 μL/mL added in 2.5% solution, conc. 1.92%",4.0
same,Appearance,[2]; [8],"Cloudy, brittle gel"
same,Peptide solution pH,[2]; [8],4.5
same,Peptide solution pH,"[2]; 0.1 N NaOH 400 μL/mL added in 2.5% solution, conc. 1.79%",5.4
same,Peptide solution pH,"[2]; last line per peptide, NaOH volume and conc. not given",7.0
same,apparent stiffness on pH increase,[2]; [9],increased
same,color of solution on pH increase,[2]; [9],did not change the clear color
same,pH level at which the peptide solution began phase separation becoming cloudy,[3],> 3.7
same,rheological property of solutions at various pH levels,"[3]; PuraMatrix 2.5% solution, IEIK13 1.5% solution, storage modulus at 1 rad/sec",increases with pH adjustment up to 3.4
same,rheological property of hydrogels after DMEM treatment at various pH,"[3]; after DMEM treatment, storage modulus at 1 rad/sec",increases with pH adjustment up to 3.4
same,rheological properties of solutions after pH adjustment,"[3]; at pH 3.4 (IEIK13 adjusted to 3.7), KLD12 1%, IEIK13 1%, PuraMatrix 1% and 2.5%",higher
same,gelation after saline buffer treatment,[4],fast gelation
